Test results reported in US20240262912A1 (MERUS N V, published 2024).

Columns and labels:
[1] = molecular target: T1, Human CLEC12A on cells (HL60, CLEC12A-CHO-K1, primary blood, bone marrow and AML cells) (human, UniProt Q5QGZ9 1-265); test: cell-based or functional assay
T1 sequence: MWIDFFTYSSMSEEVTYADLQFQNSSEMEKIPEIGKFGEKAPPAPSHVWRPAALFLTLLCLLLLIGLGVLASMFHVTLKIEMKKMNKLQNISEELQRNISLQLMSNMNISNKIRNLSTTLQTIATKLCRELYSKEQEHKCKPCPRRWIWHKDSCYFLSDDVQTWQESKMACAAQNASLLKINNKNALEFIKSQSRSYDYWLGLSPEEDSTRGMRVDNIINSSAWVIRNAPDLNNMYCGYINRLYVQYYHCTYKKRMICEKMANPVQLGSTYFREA

[2] = molecular target: T1, Human CLEC12A on cells (HL60, …); test: cell-based or functional assay; remark: listed apart in the source
[3] = molecular target: T1, Human CLEC12A on cells (HL60, …); test: cell-based or functional assay; remark: listed apart in the source
[4] = molecular target: T2, Recombinant purified CLEC12A-His (Sino Biologicals) (human, UniProt Q5QGZ9 65-265); test: SPR (Biacore T100); antibody captured on CM5 chip through mouse anti-human IgG, recombinant CLEC12A-His run over the surface
T2 construct: Bought protein; 11896-H07H; not shown: His tag
T2 sequence: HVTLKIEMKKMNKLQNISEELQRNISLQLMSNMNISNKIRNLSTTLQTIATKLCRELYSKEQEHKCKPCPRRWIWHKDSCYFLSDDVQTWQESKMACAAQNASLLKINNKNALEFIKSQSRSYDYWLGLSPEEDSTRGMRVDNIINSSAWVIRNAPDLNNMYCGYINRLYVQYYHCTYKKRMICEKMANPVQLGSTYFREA

fold T cell expansion, primary AML sample of patient 10, day 10 [1]: 25 fold
fold T cell expansion, primary AML sample of patient 11, day 10 [1]: 6 fold
fold T cell expansion, primary AML sample of patient 12, day 10 [1]: 37 fold
fold T cell expansion, primary AML sample of patient 13, day 10 [1]: 139 fold
fold T cell expansion, primary AML sample of patient 14, day 10 (1,000 ng/mL) [1]: 64 fold
fold T cell expansion, primary AML sample of patient 15, day 10 (1,000 ng/mL) [1]: 25 fold
fold T cell expansion, primary AML sample of patient 16, day 10 [1]: 15 fold
fold T cell expansion, primary AML sample of patient 17, day 10 [1]: 98 fold
fold T cell expansion, primary AML sample of patient 18, day 10 [1]: 20 fold
fold T cell expansion, primary AML sample of patient 19, day 10 [1]: 60 fold
fold T cell expansion, primary AML sample of patient 20, day 10 (1,000 ng/mL) [1]: 157 fold
HL60 cell lysis, mean EC50 [2]: 0.0682 µg/mL
median fold T cell expansion in primary AML samples, day 10 [3]: 48 fold
Kd [4]: 3 nM
B1: Antibody MF4327×MF5196, full length human IgG1 CLEC12AxCD3 bispecific antibody with silenced Fc effector function (bispecific antibody, V domains shown)
VH 1: QVQLVQSGAEVKKPGASVKVSCKASGYTFTSYYMHWVRQAPGQGLEWMGIINPSGGSTSYAQKFQGRVTMTRDTSTSTVYMELSSLRSEDTAVYYCAKGTTGDWFDYWGQGTLVTVSS
VH 2: QVQLVQSGGGVVQPGRSLRLSCVASGFTFSSYGMHWVRQAPGKGLEWVAAIWYNARKQDYADSVKGRFTISRDNSKNTLYLQMNSLRAEDTAVYYCTRGTGYNWFDPWGQGTLVTVSS
VL: not shown
notes: Full length human IgG1 with a common light chain; The CH3 domains are engineered for heterodimerisation, and changes in the CH2 regions remove Fc effector function; also called CLEC12AxCD3 bispecific IgG; Fcγ receptor-silenced antibody MF4327×MF5196
CD25 on CD4 T cells, mean EC50 (HL60 cytotoxicity assay) [2]: 0.351 µg/mL
CD25 on CD8 T cells, mean EC50 (HL60 cytotoxicity assay) [2]: 0.0957 µg/mL
CD69 on CD4 T cells, mean EC50 (HL60 cytotoxicity assay) [2]: 0.156 µg/mL
CD69 on CD8 T cells, mean EC50 (HL60 cytotoxicity assay) [2]: 0.0444 µg/mL
